B1: CAI-4 peptide (peptide)
peptide: ITFEDLLDYYK
notes: variant of CAI peptide with a lysine residue replacing the last two C-terminal amino acids; source: synthetic peptide, bought: AnaSpec Inc
B2: CAI peptide (peptide)
peptide: ITFEDLLDYYGP
notes: source: synthetic peptide, bought: AnaSpec Inc

Experiments:
[1] = target: T1, wild-type HIV-1 capsid protein (WT CA) (HIV-1 (pLAI.2), UniProt P03348 133-363, biotin (EZ-link Sulfo-NHS-LC-LC-biotin, 1 biotin per molecule) in the SPR only); assay: turbidity (absorbance at 350 nm) polymerization assay with inhibitor; 40 µM WT CA pre-incubated with inhibitor (2-fold serial dilution from 20 µM final for CAI-4), 50 mM sodium phosphate pH 7.5, 2 M NaCl, 0.005% Antifoam 204, 1% DMSO, 25°C; IC50 from initial rates; conditions: both partners purified
T1 construct: HIV-1 capsid protein (CA), the 231 residues of wild-type CA amplified from the infectious HIV-1 cDNA plasmid pLAI.2; The 5' primer added a codon for an N-terminal methionine; untagged (pET30a NdeI/XhoI, stop codon); also called CA FL; full-length wild-type capsid protein; source: E. coli BL21(DE3), purified (ammonium sulfate cut, two rounds of polymerization/depolymerization, Q-HP flow-through); …

[2] = target: T1, wild-type HIV-1 capsid protein (WT CA); assay: SPR; Biacore T100; minimally biotinylated WT CA or CA 4Mu hexamer captured on neutravidin on CM5 chips, CAI injected (100 µM and 3-fold dilutions); 50 mM sodium phosphate pH 7.5, 150 mM NaCl, 0.01% P20; steady-state one-site fit; conditions: both partners purified

| Binder | IC50 [1] | Kd [2] |
| --- | --- | --- |
| B1 | 4.7 ± 0.9 µM |  |
| B2 |  | 1.38 µM |
